Target: type I collagen (collagen membrane or collagen gel)
Assay: modified ELISA on type I collagen membrane (6.0 mg), Kd calculated by Matsushita's method

| Kd [nM] | Substance |
| --- | --- |
| 510 | CBD-NGF, histidine-affinity tagged fusion protein comprising the collagen binding domain and beta-NGF mature peptide |
| 1500 | NAT-NGF, beta-NGF mature peptide with the histidine-affinity tag (ligand) |

From patent US20140315253A1
